Measured values as given in the supplement of paper PMC9170038.

Tested on: MS2 coat protein
Assay: apparent KD of MS2 coat protein; designed switch direction (-1 OFF switch, 1 ON switch): 1; higher = weaker reporter binding
How it was run: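 Three titration conditions were used: no input, 200 uM small-molecule ligand, and an oligonucleotide input. In each, SNAP-549-labelled MS2 coat protein was raised from 0.7 or 1.5 nM, doubling, to 3 µM over designed RNA switches transcribed on Illumina chips by stalled E. coli RNA polymerase. Curve fits of normalised cluster fluorescence gave values whose per-design median over clusters is the apparent KD.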

[1] = input ligand: microRNA oligo, concentration not stated
[2] = Eterna round: R95, input ligand: FMN 200 uM
[3] = Eterna round: R95, input ligand: microRNA oligo, concentration not stated
[4] = Eterna round: R95, input ligand: none

Sequence | apparent KD of MS2 coat protein (input ligand: FMN 200 uM) [µM] | apparent KD of MS2 coat protein [1] [µM] | apparent KD of MS2 coat protein (input ligand: none) [µM] | apparent KD of MS2 coat protein [2] [µM] | apparent KD of MS2 coat protein [3] [µM] | apparent KD of MS2 coat protein [4] [µM]
GCUCGAAUCAAAACCAACAUGAGGAUCACCCAUGUAUGUUGGUAGGAUAUCGUUUGCUUUGCAAACGAGAAGGGCCAAACGAGC [SameState NG3 #3] (Eterna round: R96, puzzle: Same State NG 3) | 0.0692 | 0.121 | 0.127 | – | – | –
GGUCCAGCCUGAGCUGGACAAAAGCAUGUACAUGAGGAUCACCCAUGUUCAUGUACAAGCUUUUUGCUCGUCUUACG [salish99_208a_r3_086] (puzzle: Sensor for hsa-mir-208a) | – | – | – | 0.571 | 0.0192 | 0.844
ACAUGAGAGUUAGGAUAUCUUGUACCUACAUGUGACAUGAGGAUCACCCAUGUGGUAAGUAUGAGGGAGAAGGGACAGAUAUGU [Equivalence 44 - Jieux - Same State NG 2] (Eterna round: R96, puzzle: Same State NG 2) | 0.0674 | 0.0544 | 0.0847 | – | – | –
GUAAAACAUGAGGAUCACCCAUGUAAUAAUAUGGGAGGAUAUCUGAUUUAAUUUAAUUUAAGAGAAGGCCUAAAUG [Mat - Same State 1 - Mod of Eli - D58] (puzzle: Same State 1) | – | – | – | 0.0399 | 0.318 | 0.608
GCGAGCGUACUUGCUACAUGAGGAUCACCCAUGUUUUAUGGACAGGAUAUGGUACCGUUUCGGUACCAGAAGGGUCCACAUGUA [JL SSNG3 3.84] (Eterna round: R96, puzzle: Same State NG 3) | 0.13 | 0.579 | 0.453 | – | – | –
GCGAAGAGGUAAGGAUAUGCAUGGCGGAGACAUGAGGAUCACCCAUGUUGGAGACGAAAUCUAGGGUAGAAGGUACCAGGAAGC [AK SSNG2-V2-12] (Eterna round: R96, puzzle: Same State NG 2) | 0.0619 | 0.0526 | 0.0721 | – | – | –
GUUACAUGAGGAUCACCCAUGUAUGUGUGGGAGUAAGUGUCUUAGGAUAUCUAGGAUUUAAUUUAAGAGAAGGAAGAUUGUUGU [JMF's solution 50] (Eterna round: R96, puzzle: Same State NG 3) | 0.0897 | 0.0459 | 0.0774 | – | – | –
GAUAAACAUGAGGAUCACCCAUGUGUGAAUAUGGGAGGAUAUACGUGGACCGUAGUCCGCGUAGAAGGCCUAAUUG [Mat - Same State 1 - Mod of JL - D20] (puzzle: Same State 1) | – | – | – | – | 0.166 | –
CAUUCUUUUCCGGAGGAUAUGCUACCCUUUACAUGAGGAUCACCCAUGUUACCCUCUUCUUGUCAGUAGAAGGCCGUUUCUUAAC [Regan] (puzzle: Same State 2) | – | – | – | – | 0.0273 | –
AAGACAUUUGCUUAGGAUAUACAGGGCUCCACAUGAGGAUCACCCAUGUUAAAAGAGGAGUAAAUGUAGAAGGAAGCCUCCAAUA [Zazaes] (puzzle: Same State 2) | – | – | – | 0.0191 | 0.0598 | 0.0663
AACAAUCUAUCUCAGGAUAUCAUGUCAAAGACAUGAGGAUCACCCAUGUACCAGGAAACUGGUUAUGAGAAGGGAGAUAGAUUGG [Mat - Same State 2 - Mod - D28] (puzzle: Same State 2) | – | – | – | 0.161 | 0.438 | 0.197
GCGGCGGCACGGCAGGAUAUGAUAUAACCUACAUGAGGAUCACCCAUGUCGGCGGGUUGCAAAAUUCAGAAGGGCCCUGUAGGCC [Inberere] (puzzle: Same State 2) | – | – | – | 0.0218 | 0.0344 | 0.0372
GCGAGUGCCACAGGAUAUUCGGCUGUUUCGCUCGAAGAAGGGUGCCGCAUGCAAUAAAGAAAACAUGAGGAUCACCCAUGUGAA [Uszavege] (Eterna round: R96, puzzle: Same State NG 1) | 0.527 | 0.217 | 0.418 | – | – | –
GCACUCCUAGGAGCUGCGACAUGAGGAUCACCCAUGUAAUCACAGGAUAUGCAAUUCUGAAUUUUGCAGAAGGGUGAUAGGAAA [Zausorbi] (Eterna round: R96, puzzle: Same State NG 3) | 0.413 | 0.27 | 0.263 | – | – | –
AACAAUCUAUCUGAGGAUAUCAUGAAAUAAACAUGAGGAUCACCCAUGUGCAGGAAAACUGCAUAUUAGAAGGCAGAUAGAUUGA [salish99_ss2_r3_049] (puzzle: Same State 2) | – | – | – | 0.163 | 0.0388 | 0.151
CCGAUGUGGGUACAGGAUAUGUGGGCCUCCACAUGAGGAUCACCCAUGUCGGAGGCAAAGCGGCUACAGAAGGGUGCGAGCUCGA [Xeanza] (puzzle: Same State 2) | – | – | – | – | 0.00928 | –
UGGUACAUGGGAGGAUAUCAUGUAGAAACAUGAGGAUCACCCAUGUGGAUGGAGACAUCGGAGAUUGAGAAGGCCCAUGUACCU [JL SSNG1 3.56] (Eterna round: R96, puzzle: Same State NG 2) | 0.0156 | 0.0209 | 0.0252 | – | – | –
GGAAACUUGAGAGGAUAUGUAGAGGAUCACCCUACAGAAGGCUCUUUUGAGAGGAUAUGUAGAGGAUCACCCUACAGAAGGCUC [pwkr ssNG DX.14] (Eterna round: R96, puzzle: Same State NG 1) | 0.0307 | 0.0265 | 0.087 | – | – | –
UUUUUUAUCGUAGGAUAUAGGUUGAAUAAUAGACUAGAAGGACGUCACAUGAGGAUCACCCAUGUUUUUUAAGUGUCGAAGUGU [JR_SSNG1_Sub040] (Eterna round: R96, puzzle: Same State NG 1) | 0.0313 | 0.023 | 0.0294 | – | – | –
GCCAUCGAGUGAGGAUAUGGCACCGAAACGGUGCCAGAAGGCAUGUCAAUUGACAUGAGGAUCACCCAUGUAUUAUCGAUGGCA [Mat - Same State NG 1 - JL mod - D87] (Eterna round: R96, puzzle: Same State NG 1) | 0.154 | 0.726 | 1.69 | – | – | –
GGCUAUCGCGUUCGAUAGCUUAAGCAUGUACAUGAGGAUCACCCAUGUCAUGUACAAGCUUUUUGCUCGUAUCUUAU (puzzle: Sensor for hsa-mir-208a) | – | – | – | 0.0946 | 0.0121 | 0.119
GCCGCGUUUCGCGCCUACAUGAGGAUCACCCAUGUUUGUUGGCAGGAUAUCGUCCGCUCUGCGGGCGAGAAGGGCUGUUGUGGU [salish99_SSNG3_R04_025] (Eterna round: R96, puzzle: Same State NG 3) | 0.0384 | 0.018 | 0.0254 | – | – | –
CAGCGCUGUCGAGAGGAUAUGCGGUGAUGGACAUGAGGAUCACCCAUGUUAGCGAUAGCAUUACUGUAGAAGGCUCUACAGCUGC [JL-ss2-3.08 ViennaUCT mod] (puzzle: Same State 2) | – | – | – | – | 0.0243 | –
ACCCAAAGUAUAUGGGAGCAAGCUUUUUAACAUGAGGAUCACCCAUGUACUCGUCUUAUAAGCAGUCGAAAGACUGC [Sensor 100 - 4] (puzzle: Sensor for hsa-mir-208a) | – | – | – | 0.612 | 0.0124 | 0.814
AGCGAAAGCAGUCACAUGAGGAUCACCCAUGUAUUAACUAUUGAGGAUAUGCAGCGACGGGUGUAGCAGAAGGCAGUGAGAAGG [Eternabot solution 30] (Eterna round: R96, puzzle: Same State NG 3) | 0.0544 | 0.0521 | 0.0611 | – | – | –
GUGGUCAGACAUGAGGAUCACCCAUGUGGAAUAAAUAACGGACAGGAUAUCGAAUAUAGGAUAUACGAGAAGGGUUGAUUGGUG (Eterna round: R96, puzzle: Same State NG 3) | – | 0.0539 | – | – | – | –
AUUGCUAGCGCAGGAUAUGAUGCGAAAAUUGCGUCAGAAGGGUGUACUCUCUCAUUGCGGGAGGACAUGAGGAUCACCCAUGUC [SameState NG1 #83] (Eterna round: R96, puzzle: Same State NG 1) | 0.0666 | 0.0715 | 0.0833 | – | – | –
ACAUGAGGAUCACCCAUGUCGCUGGUAUCGGAUACGUAUUACGAGGAUAUGCCGAGGAGUUCCGAGUAGAAGGUGUAAUACAUG [Eternabot solution 40] (Eterna round: R96, puzzle: Same State NG 3) | 0.178 | 0.0903 | 0.102 | – | – | –
AGGCUCAGACGAGGAUAUGGUCAUGGCGCUUCGGCGCAUACAUGAGGAUCACCCAUGUAGGGUGAUCAGAAGGUGUCUGAGCCA [SSNG2/9-B1] (Eterna round: R96, puzzle: Same State NG 2) | 0.171 | 0.72 | 0.892 | – | – | –
